Results from patent US20140087995A1 (published 2014).
Numbered stars: 1 amine (or outer) side, 2 acyl side, 3 side chain; on linkers, the order of the positions; unused ones are H or OH. Bridge positions count the residues as written; N and C are the ends. Side chains are listed from the residue outwards. Ends that are not written are not given here. * marks the point of attachment. C20 diacid = O=C(O)CCCCCCCCCCCCCCCCCCC(=O)*; γGlu = O=C(O)[C@H](CCC(=O)[*:2])N[*:1]

T1: rat calcitonin receptor (rat, UniProt P32214 25-516)
T1 construct: whole, on cells; In cell membranes prepared from transiently transfected BHK tk'ts 13 cells (Assay VIII); also called rCTR; rat calcitonin (a) receptor
T1 sequence (looked up): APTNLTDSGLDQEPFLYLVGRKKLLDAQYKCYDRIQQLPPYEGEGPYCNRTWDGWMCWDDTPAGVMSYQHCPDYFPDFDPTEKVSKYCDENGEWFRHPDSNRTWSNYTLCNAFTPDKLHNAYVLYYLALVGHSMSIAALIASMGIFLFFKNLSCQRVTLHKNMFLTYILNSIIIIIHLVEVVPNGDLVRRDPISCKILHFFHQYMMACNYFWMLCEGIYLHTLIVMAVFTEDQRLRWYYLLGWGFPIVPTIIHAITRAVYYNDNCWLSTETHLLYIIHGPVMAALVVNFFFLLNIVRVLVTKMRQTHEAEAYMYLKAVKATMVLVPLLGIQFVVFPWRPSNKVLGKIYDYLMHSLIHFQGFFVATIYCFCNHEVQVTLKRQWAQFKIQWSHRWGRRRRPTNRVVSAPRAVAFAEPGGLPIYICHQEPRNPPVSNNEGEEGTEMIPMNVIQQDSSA

T2: human calcitonin receptor (human, UniProt P30988 25-474)
T2 construct: whole, on cells; Cell membranes from the stably transfected cell line (Assay VII); also called hCTR; hCT
T2 sequence (looked up): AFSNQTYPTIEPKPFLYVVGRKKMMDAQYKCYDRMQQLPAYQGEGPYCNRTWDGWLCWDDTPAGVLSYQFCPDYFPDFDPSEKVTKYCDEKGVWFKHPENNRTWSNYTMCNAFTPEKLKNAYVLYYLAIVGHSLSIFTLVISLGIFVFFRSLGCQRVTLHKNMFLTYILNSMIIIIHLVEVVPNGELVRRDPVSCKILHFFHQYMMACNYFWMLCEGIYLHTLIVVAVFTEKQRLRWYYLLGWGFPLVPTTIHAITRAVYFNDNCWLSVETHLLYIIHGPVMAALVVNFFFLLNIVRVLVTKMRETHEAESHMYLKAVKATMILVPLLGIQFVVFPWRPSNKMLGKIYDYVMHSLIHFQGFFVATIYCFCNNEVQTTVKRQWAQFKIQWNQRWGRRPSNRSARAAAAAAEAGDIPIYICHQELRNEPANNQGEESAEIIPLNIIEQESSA

T3: rat amylin receptor (rat calcitonin receptor + rat RAMP 3) (rat, UniProt P32214 25-516; Q9JJ73 23-147)
T3 construct: whole, on cells; Receptor complex in cell membranes prepared from transiently transfected BHK tk'ts 13 cells (Assay VI); also called rAmylin-R; rat amylin 3(a) receptor
T3 sequence (looked up) 1: T1 sequence (looked up)
T3 sequence (looked up) 2: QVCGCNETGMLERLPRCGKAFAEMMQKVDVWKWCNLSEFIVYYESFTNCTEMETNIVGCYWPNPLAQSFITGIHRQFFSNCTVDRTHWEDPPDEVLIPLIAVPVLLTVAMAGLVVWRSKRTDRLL

B1: N^ε1-[(4S)-4-carboxy-4-(19-carboxynonadecanoylamino)butanoyl]-[Glu14,Arg17,Pro21,Pro27,His35]-h-amylin (peptide)
peptide: K([γGlu-C20 diacid])CNTATCATQRLAEFLRHSSPNFGAIPSSTNVGSHTY-NH2
modifications: disulfide 2-7; N-terminus assumed
SMILES: CC[C@H](C)[C@H](NC(=O)[C@H](C)NC(=O)CNC(=O)[C@H](Cc1ccccc1)NC(=O)[C@H](CC(N)=O)NC(=O)[C@@H]1CCCN1C(=O)[C@H](CO)NC(=O)[C@H](CO)NC(=O)[C@H](Cc1c[nH]cn1)NC(=O)[C@H](CCCNC(=N)N)NC(=O)[C@H](CC(C)C)NC(=O)[C@H](Cc1ccccc1)NC(=O)[C@H](CCC(=O)O)NC(=O)[C@H](C)NC(=O)[C@H](CC(C)C)NC(=O)[C@H](CCCNC(=N)N)NC(=O)[C@H](CCC(N)=O)NC(=O)[C@@H](NC(=O)[C@H](C)NC(=O)[C@@H]1CSSC[C@H](NC(=O)[C@@H](N)CCCCNC(=O)CC[C@H](NC(=O)CCCCCCCCCCCCCCCCCCC(=O)O)C(=O)O)C(=O)N[C@@H](CC(N)=O)C(=O)N[C@@H]([C@@H](C)O)C(=O)N[C@@H](C)C(=O)N[C@@H]([C@@H](C)O)C(=O)N1)[C@@H](C)O)C(=O)N1CCC[C@H]1C(=O)N[C@@H](CO)C(=O)N[C@@H](CO)C(=O)N[C@H](C(=O)N[C@@H](CC(N)=O)C(=O)N[C@H](C(=O)NCC(=O)N[C@@H](CO)C(=O)N[C@@H](Cc1c[nH]cn1)C(=O)N[C@H](C(=O)N[C@@H](Cc1ccc(O)cc1)C(N)=O)[C@@H](C)O)C(C)C)[C@@H](C)O
B2: N^ε1-[(4S)-4-carboxy-4-[[(4S)-4-carboxy-4-(19-carboxynonadecanoylamino)butanoyl]amino]butanoyl]-[Glu14,Arg17,Pro21,Pro27,Pro34,Glu35,Pro37]-h-amylin (peptide)
peptide: K([γGlu-γGlu-C20 diacid])CNTATCATQRLAEFLRHSSPNFGAIPSSTNVGPETP-NH2
modifications: disulfide 2-7; N-terminus assumed
SMILES: CC[C@H](C)[C@H](NC(=O)[C@H](C)NC(=O)CNC(=O)[C@H](Cc1ccccc1)NC(=O)[C@H](CC(N)=O)NC(=O)[C@@H]1CCCN1C(=O)[C@H](CO)NC(=O)[C@H](CO)NC(=O)[C@H](Cc1c[nH]cn1)NC(=O)[C@H](CCCNC(=N)N)NC(=O)[C@H](CC(C)C)NC(=O)[C@H](Cc1ccccc1)NC(=O)[C@H](CCC(=O)O)NC(=O)[C@H](C)NC(=O)[C@H](CC(C)C)NC(=O)[C@H](CCCNC(=N)N)NC(=O)[C@H](CCC(N)=O)NC(=O)[C@@H](NC(=O)[C@H](C)NC(=O)[C@@H]1CSSC[C@H](NC(=O)[C@@H](N)CCCCNC(=O)CC[C@H](NC(=O)CC[C@H](NC(=O)CCCCCCCCCCCCCCCCCCC(=O)O)C(=O)O)C(=O)O)C(=O)N[C@@H](CC(N)=O)C(=O)N[C@@H]([C@@H](C)O)C(=O)N[C@@H](C)C(=O)N[C@@H]([C@@H](C)O)C(=O)N1)[C@@H](C)O)C(=O)N1CCC[C@H]1C(=O)N[C@@H](CO)C(=O)N[C@@H](CO)C(=O)N[C@H](C(=O)N[C@@H](CC(N)=O)C(=O)N[C@H](C(=O)NCC(=O)N1CCC[C@H]1C(=O)N[C@@H](CCC(=O)O)C(=O)N[C@H](C(=O)N1CCC[C@H]1C(N)=O)[C@@H](C)O)C(C)C)[C@@H](C)O
B3: N^ε1-[(4S)-4-carboxy-4-[[(4S)-4-carboxy-4-(19-carboxynonadecanoylamino)butanoyl]amino]butanoyl]-[Glu14,Arg17,Pro21,Pro27,Pro34,His35]-h-amylin (peptide)
peptide: K([γGlu-γGlu-C20 diacid])CNTATCATQRLAEFLRHSSPNFGAIPSSTNVGPHTY-NH2
modifications: disulfide 2-7; N-terminus assumed
SMILES: CC[C@H](C)[C@H](NC(=O)[C@H](C)NC(=O)CNC(=O)[C@H](Cc1ccccc1)NC(=O)[C@H](CC(N)=O)NC(=O)[C@@H]1CCCN1C(=O)[C@H](CO)NC(=O)[C@H](CO)NC(=O)[C@H](Cc1c[nH]cn1)NC(=O)[C@H](CCCNC(=N)N)NC(=O)[C@H](CC(C)C)NC(=O)[C@H](Cc1ccccc1)NC(=O)[C@H](CCC(=O)O)NC(=O)[C@H](C)NC(=O)[C@H](CC(C)C)NC(=O)[C@H](CCCNC(=N)N)NC(=O)[C@H](CCC(N)=O)NC(=O)[C@@H](NC(=O)[C@H](C)NC(=O)[C@@H]1CSSC[C@H](NC(=O)[C@@H](N)CCCCNC(=O)CC[C@H](NC(=O)CC[C@H](NC(=O)CCCCCCCCCCCCCCCCCCC(=O)O)C(=O)O)C(=O)O)C(=O)N[C@@H](CC(N)=O)C(=O)N[C@@H]([C@@H](C)O)C(=O)N[C@@H](C)C(=O)N[C@@H]([C@@H](C)O)C(=O)N1)[C@@H](C)O)C(=O)N1CCC[C@H]1C(=O)N[C@@H](CO)C(=O)N[C@@H](CO)C(=O)N[C@H](C(=O)N[C@@H](CC(N)=O)C(=O)N[C@H](C(=O)NCC(=O)N1CCC[C@H]1C(=O)N[C@@H](Cc1c[nH]cn1)C(=O)N[C@H](C(=O)N[C@@H](Cc1ccc(O)cc1)C(N)=O)[C@@H](C)O)C(C)C)[C@@H](C)O

Target: T1, rat calcitonin receptor
Test: SPA competition binding, displacement of 125I-Calcitonin from membranes of BHK tk'ts 13 cells with rat calcitonin receptor (Assay VIII)

Point of comparison: B3, IC50 21 nM. Against it:
- B1 — within 1.5-fold, 26.3 nM
- B2 — 13-fold lower, 1.61 nM

Target: T1, rat calcitonin receptor
Test: ratio of binding IC50s: rat calcitonin receptor (Assay VIII) over rat amylin receptor (Assay VI)

Point of comparison: B2, “Ratio rCT/rAmylin binding” value 10.6. Against it:
- B1 — higher, 22.7
- B3 — higher, 73

Target: T2, human calcitonin receptor
Test: ratio of binding IC50s: human calcitonin receptor (Assay VII) over human amylin receptor (Assay V)
Method: The resulting pellet was resuspended, homogenized and centrifuged (20.000 rpm, 15 min) in a buffer containing 20 mM Na-HEPES and 0.1 mM EDTA (pH 7.4, buffer 2). The resulting pellet was resuspended in buffer 2 and protein concentration was measured (BCA protein Assay, Pierce). The homogenate was kept cold during the whole procedure. The membranes were kept at −80° C. until use. The assay was performed in a 384 well Optiplate (PerkinElmer) in a total volume of 40 ul. Membranes were mixed with SPA beads. Final concentration of membranes 35 ng/μL final and SPA beads was 0.05 mg/well. Test-compounds were dissolved in DMSO and further diluted in assay buffer (50 mM Hepes, pH 7.4, 1 mM CaCl2, 5 mM MgCl₂, 0.1% OA and 0.02% Tween20). […] The final mixture was incubated with shaking at 400 rpm for 120 min at 25° C. prior to centrifugation (1500 rpm, 10 min). Samples were analyzed on TopCounter™ (Packard). The IC₅₀ was calculated using (one site binding competition analysis) GraphPad Prism5 as a measure of receptor affinity.
Membranes were prepared in the following way; the cells were rinsed with PBS and incubated with Versene for approximately 5 min before harvesting. The cells were flushed with PBS and the cell-suspension was centrifuged for 5 min at 1000 rpm. Cells were homogenized (Ultrathurrax) in a buffer containing 20 mM Na-HEPES and 10 mM EDTA (pH 7.4) and centrifuged at 20.000 rpm for 15 min. The resulting pellet was resuspended, homogenized and centrifuged (20.000 rpm, 15 min) in a buffer containing 20 mM Na-HEPES and 0.1 mM EDTA (pH 7.4, buffer 2). The resulting pellet was resuspended in buffer 2 and protein concentration was measured (BCA protein Assay, Pierce). The homogenate was kept cold during the whole procedure. The membranes were kept at −80° C. until use. Assay was performed in a 384 well Optiplate (PerkinElmer) in a total volume of 40 ul. Membranes were mixed with SPA beads.

Point of comparison: B3, “Ratio hCT/hAmylin binding” value 27.3. Against it:
- B1 — lower, 26.4
- B2 — lower, 0.4

Target: T3, rat amylin receptor (rat calcitonin …)
Test: SPA competition binding, displacement of 125I-rat amylin from membranes of BHK tk'ts 13 cells with rat calcitonin receptor + rat RAMP 3 (Assay VI)
Method: The binding assay was performed using scintillation proximity assay (SPA) beads (RPNQ0001) from PerkinElmer and cell membranes from the Amylin 3(a)/CRE-luc cells (as described in Assay (II)) were used. Membranes were prepared in the following way; the cells were rinsed with PBS and incubated with Versene for approximately 5 min before harvesting. The cells were flushed with PBS and the cell-suspension was centrifuged for 5 min at 1000 rpm. Cells were homogenized (ultrathurrax) in a buffer containing 20 mM Na-HEPES and 10 mM EDTA (pH 7.4) and centrifuged at 20.000 rpm for 15 min. The resulting pellet was resuspended, homogenized and centrifuged (20.000 rpm, 15 min) in a buffer containing 20 mM Na-HEPES and 0.1 mM EDTA (pH 7.4, buffer 2). The resulting pellet was resuspended in buffer 2 and protein concentration was measured (BCA protein Assay, Pierce). The homogenate was kept cold during the whole procedure. The membranes were kept at −80° C. until use. The assay was performed in a 384 well Optiplate (PerkinElmer) in a total volume of 40 ul. Membranes were mixed with SPA beads. Final concentration of membranes 35 ng/μL final and SPA beads was 0.05 mg/well. Test-compounds were dissolved in DMSO and further diluted in assay buffer (50 mM Hepes, pH 7.4, 1 mM CaCl2, 5 mM MgCl₂, 0.1% OA and 0.02% Tween20). […] The final mixture was incubated with shaking at 400 rpm for 120 min at 25° C. prior to centrifugation (1500 rpm, 10 min). Samples were analyzed on TopCounter™ (Packard). The IC₅₀ was calculated using (one site binding competition analysis) GraphPad Prism5 as a measure of receptor affinity.
Cells were grown in DMEM with 10% FBS and 1% Pen/Strep. Approximately 48 hours after transfection, the cells were harvested and membranes were prepared.

Point of comparison: B2, IC50 0.152 nM. Against it:
- B1 — 7.6-fold higher, 1.16 nM
- B3 — 1.9-fold higher, 0.288 nM
